Where a chain is given by its changes, count along the chain named. Names may count otherwise.
Tests used:
[1] = biological target: T1, PYL3 with HAB1 (Arabidopsis thaliana, UniProt Q9SSM7); experiment: HAB1 phosphatase assay (Promega V2460), phosphopeptide substrate; type: biochemical; details: HAB1 0.5 μM, PYL3 1 μM, ABA 5 μM, pH 7.5, 30 °C; ABA promotes inhibition of HAB1 by PYL3
T1 construct: 6xHis-tagged PYL3 plus HAB1 (169-511), GST tag removed by TEV protease; both from E. coli; with Protein phosphatase 2C 16
T1 sequence (Q9SSM7 1-209): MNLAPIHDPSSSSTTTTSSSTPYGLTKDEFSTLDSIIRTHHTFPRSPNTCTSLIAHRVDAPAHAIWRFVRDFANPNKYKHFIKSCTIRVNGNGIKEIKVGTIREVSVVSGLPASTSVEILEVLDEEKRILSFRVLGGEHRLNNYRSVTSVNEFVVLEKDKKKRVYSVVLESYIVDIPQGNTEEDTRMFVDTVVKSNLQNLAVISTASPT
T1 sequence (Q9CAJ0 169-511 partner): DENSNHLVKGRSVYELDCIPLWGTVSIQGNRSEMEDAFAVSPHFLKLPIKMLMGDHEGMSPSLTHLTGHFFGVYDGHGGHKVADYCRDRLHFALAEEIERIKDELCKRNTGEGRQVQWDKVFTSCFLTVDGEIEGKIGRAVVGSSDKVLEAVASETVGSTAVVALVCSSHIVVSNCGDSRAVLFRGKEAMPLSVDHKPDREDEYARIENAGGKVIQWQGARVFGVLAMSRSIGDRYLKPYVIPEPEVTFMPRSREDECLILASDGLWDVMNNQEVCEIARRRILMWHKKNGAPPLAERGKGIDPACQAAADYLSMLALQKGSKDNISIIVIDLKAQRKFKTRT

[2] = biological target: T2, PYL3 with HAB1 (Arabidopsis thaliana, UniProt Q9SSM7, F81A); experiment: as above; type: biochemical; details: read-out: % inhibition of HAB1 with 5 μM ABA
T2 construct: 6xHis-tagged PYL3 plus HAB1 (169-511), GST tag removed by TEV protease; both from E. coli; with Protein phosphatase 2C 16
T2 sequence (Q9SSM7 1-209 F81A): T1 sequence (Q9SSM7 1-209) with F81A
T2 sequence (Q9CAJ0 169-511 partner): T1 sequence (Q9CAJ0 169-511 partner)

[3] = biological target: T3, PYL3 with HAB1 (Arabidopsis thaliana, UniProt Q9SSM7, F188A); experiment: as above; type: biochemical; details: read-out: % inhibition of HAB1 with 5 μM ABA
T3 construct: 6xHis-tagged PYL3 plus HAB1 (169-511), GST tag removed by TEV protease; both from E. coli; with Protein phosphatase 2C 16
T3 sequence (Q9SSM7 1-209 F188A): T1 sequence (Q9SSM7 1-209) with F188A
T3 sequence (Q9CAJ0 169-511 partner): T1 sequence (Q9CAJ0 169-511 partner)

[4] = biological target: AD-HAB1 (169-511) (Arabidopsis thaliana) (UniProt Q9CAJ0)
[5] = biological target: AD-HAB1 (169-511) (Arabidopsis thaliana) (UniProt Q9CAJ0); remark: listed apart in the source
[6] = biological target: the molecule itself; experiment: cross-linking; EGS cross-linking gel assay: 20 μg 6x His-tagged PYL3 WT or mutant in PBS (pH 7.5, 150 mM NaCl), 100 μL, increasing EGS, 10 min at room temperature, stopped with Tris-glycine; 10% SDS/PAGE, Coomassie; self-association (dimer)
[7] = biological target: AD-HAB1 (169-511) (Arabidopsis thaliana) (UniProt Q9CAJ0); remark: listed apart in the source

Chain of AD-HAB1 (169-511) (Arabidopsis thaliana) (Q9CAJ0 whole entry): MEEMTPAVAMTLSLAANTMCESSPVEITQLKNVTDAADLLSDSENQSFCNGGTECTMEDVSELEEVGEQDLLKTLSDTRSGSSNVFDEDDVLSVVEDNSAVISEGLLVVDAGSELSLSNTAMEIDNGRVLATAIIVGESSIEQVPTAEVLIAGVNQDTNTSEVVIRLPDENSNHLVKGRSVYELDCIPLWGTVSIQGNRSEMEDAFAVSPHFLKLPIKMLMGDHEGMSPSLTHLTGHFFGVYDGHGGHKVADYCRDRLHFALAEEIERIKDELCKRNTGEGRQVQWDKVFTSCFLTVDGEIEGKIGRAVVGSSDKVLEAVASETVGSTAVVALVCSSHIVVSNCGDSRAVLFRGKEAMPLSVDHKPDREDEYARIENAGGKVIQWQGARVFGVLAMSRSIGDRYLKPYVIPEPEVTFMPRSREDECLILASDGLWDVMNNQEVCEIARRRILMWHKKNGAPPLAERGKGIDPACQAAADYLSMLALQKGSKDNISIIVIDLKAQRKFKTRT

For CC1=CC(=O)CC(C)(C)[C@@]1(O)/C=C/C(C)=C\C(=O)O [ABA], the “HAB1 phosphatase assay (Promega V2460), phosphopeptide substrate” value [1] was “PYL3 could almost completely inhibit the activity of HAB1 in the presence of ABA”, the inhibition at 5 µM [2] was ~70% and the inhibition at 5 µM [3] was ~70%.

B1: PYL3 V108K V107L (receptor)
chain: T1 sequence (Q9SSM7 1-209) with V107L, V108K
B1 showed an inhibition of HAB1 (0.5 μM) phosphatase activity by 1 μM PYL3 mutant, without ABA [4] of 25% and an inhibition of HAB1 phosphatase activity by the PYL3 mutant, without ABA (as retold in the discussion, Fig. 3) [5] of 20%.

B2: PYL3 V108A (6x His-tagged) (receptor, Arabidopsis thaliana, UniProt Q9SSM7 1-209, looked up)
chain: T1 sequence (Q9SSM7 1-209) with V108A
notes: PYL3, Arabidopsis thaliana, in pET-28a-tev, site-directed mutant; Same limits as m1; source: E. coli BL21(Rosseta), purified (Ni-charged resin, SEC Superdex-200)
B2 was tested, and the “stoichiometry N” value [6] was 2.

B3: BD-PYL3 V108K V107F V192F (receptor)
chain: T1 sequence (Q9SSM7 1-209) with V107F, V108K, V192F
B3 was tested, and the inhibition of HAB1 (0.5 μM) phosphatase activity by 1 μM PYL3 mutant, without ABA [4] was 90%.

B4: PYL3 F188A (receptor)
chain: T1 sequence (Q9SSM7 1-209) with F188A
For B4, the inhibition of HAB1 (0.5 μM) phosphatase activity by 1 μM PYL3 mutant, with ABA (5 μM) [7] was 70%.

B5: BD-PYL3 V108K V107L V192F (receptor)
chain: T1 sequence (Q9SSM7 1-209) with V107L, V108K, V192F
With B5 the inhibition of HAB1 (0.5 μM) phosphatase activity by 1 μM PYL3 mutant, without ABA [4] was 87.5%.

B6: wild-type PYL3 (6x His-tagged) (receptor, Arabidopsis thaliana, UniProt Q9SSM7 1-209, looked up)
chain: T1 sequence (Q9SSM7 1-209)
notes: PYL3 (pyrabactin resistance/Pyr1-like 3), Arabidopsis thaliana, subcloned from a cDNA library into pET-28a-tev; also called PYL3 WT; source: E. coli BL21(Rosseta), purified (Ni-charged resin, SEC Superdex-200)
In the case of B6, the “stoichiometry N” value [6] is reported as 2.

B7: PYL3 V108K V107F (receptor)
chain: T1 sequence (Q9SSM7 1-209) with V107F, V108K
B7 gave an inhibition of HAB1 (0.5 μM) phosphatase activity by 1 μM PYL3 mutant, without ABA [4] of 65% and an inhibition of HAB1 phosphatase activity by the PYL3 mutant, without ABA (as retold in the discussion, Fig. 3) [5] of 40%.

B8: BD-PYL3 V108K V107L V192F L111F (receptor)
chain: T1 sequence (Q9SSM7 1-209) with V107L, V108K, L111F, V192F
With B8 the inhibition of HAB1 (0.5 μM) phosphatase activity by 1 μM PYL3 mutant, without ABA [4] was 92.5%.

B9: PYL3 F81A (receptor)
chain: T1 sequence (Q9SSM7 1-209) with F81A
Molecule B9 has an inhibition of HAB1 (0.5 μM) phosphatase activity by 1 μM PYL3 mutant, with ABA (5 μM) [7] of 70%.

B10: PYL3 V108K V107L V192L L111F (receptor)
chain: T1 sequence (Q9SSM7 1-209) with V107L, V108K, L111F, V192L
B10 gave an inhibition of HAB1 (0.5 μM) phosphatase activity by 1 μM PYL3 mutant, without ABA [4] of 85%.

B11: BD-PYL3 V108K V107F V192F L111F (receptor)
chain: T1 sequence (Q9SSM7 1-209) with V107F, V108K, L111F, V192F
Molecule B11 has an inhibition of HAB1 (0.5 μM) phosphatase activity by 1 μM PYL3 mutant, without ABA [4] of 98%.

B12: PYL3 V108K V107L L111F (receptor)
chain: T1 sequence (Q9SSM7 1-209) with V107L, V108K, L111F
For B12, the inhibition of HAB1 (0.5 μM) phosphatase activity by 1 μM PYL3 mutant, without ABA [4] was 80%.

B13: PYL3 V108K V107L V192L (receptor)
chain: T1 sequence (Q9SSM7 1-209) with V107L, V108K, V192L
Molecule B13 has an inhibition of HAB1 (0.5 μM) phosphatase activity by 1 μM PYL3 mutant, without ABA [4] of 50%.

Source: PMC8091583 (FEBS Open Bio, 2021)
